Results from patent US20230055408A1 (JIANGSU HENGRUI MEDICINE, published 2023).
Changes are numbered by the printed parent chain.

T1: human CEA protein on the cell surface (human, UniProt P06731 35-685)
T1 construct: whole, on cells; also called CEACAM-5; CD66e
T1 sequence (looked up): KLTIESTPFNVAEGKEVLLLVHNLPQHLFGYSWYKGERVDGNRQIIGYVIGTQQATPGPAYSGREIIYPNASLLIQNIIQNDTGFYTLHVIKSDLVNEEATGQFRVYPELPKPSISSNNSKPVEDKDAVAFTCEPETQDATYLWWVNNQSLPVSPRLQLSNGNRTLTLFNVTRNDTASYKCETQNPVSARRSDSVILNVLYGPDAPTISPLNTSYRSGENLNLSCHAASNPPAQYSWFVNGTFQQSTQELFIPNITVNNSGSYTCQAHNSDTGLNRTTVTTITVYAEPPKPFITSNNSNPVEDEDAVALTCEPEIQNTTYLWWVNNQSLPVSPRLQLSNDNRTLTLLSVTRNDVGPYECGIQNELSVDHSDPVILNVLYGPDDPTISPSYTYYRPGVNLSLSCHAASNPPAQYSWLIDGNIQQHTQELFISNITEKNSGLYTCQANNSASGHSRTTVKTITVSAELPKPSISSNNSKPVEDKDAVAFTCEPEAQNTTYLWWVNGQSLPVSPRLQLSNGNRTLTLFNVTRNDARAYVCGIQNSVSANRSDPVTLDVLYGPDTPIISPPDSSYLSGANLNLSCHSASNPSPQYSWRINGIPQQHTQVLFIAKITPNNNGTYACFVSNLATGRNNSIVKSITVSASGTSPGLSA

T2: monkey CEA expressed on CHO cell surface (cynomolgus monkey)
T2 construct: also called cynoCEA-CHO; monkey CEA proteins on the cell surface
T2 chain: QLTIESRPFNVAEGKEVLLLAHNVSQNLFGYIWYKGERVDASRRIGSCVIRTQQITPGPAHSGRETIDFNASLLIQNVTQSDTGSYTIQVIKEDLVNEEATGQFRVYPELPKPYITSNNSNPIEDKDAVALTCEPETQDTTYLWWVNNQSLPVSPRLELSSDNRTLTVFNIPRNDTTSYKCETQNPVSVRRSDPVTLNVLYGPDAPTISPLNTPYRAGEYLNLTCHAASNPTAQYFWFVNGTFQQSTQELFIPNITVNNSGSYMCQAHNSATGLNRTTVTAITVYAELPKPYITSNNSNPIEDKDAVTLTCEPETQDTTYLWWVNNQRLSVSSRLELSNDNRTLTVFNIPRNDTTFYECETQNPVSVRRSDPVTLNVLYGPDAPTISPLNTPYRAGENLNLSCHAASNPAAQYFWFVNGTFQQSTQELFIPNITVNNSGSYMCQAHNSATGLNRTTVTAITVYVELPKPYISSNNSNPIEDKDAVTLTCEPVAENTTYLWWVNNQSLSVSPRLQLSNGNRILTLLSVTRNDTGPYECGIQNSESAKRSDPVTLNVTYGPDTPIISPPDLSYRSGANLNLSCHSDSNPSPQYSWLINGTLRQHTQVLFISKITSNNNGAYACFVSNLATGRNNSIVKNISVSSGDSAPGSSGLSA

B1: Hu103-4 (antibody, human IgG1, lambda)
heavy: not shown
light: ELVVTQSPSASASLGASVKLTCTLSSQHSTYTIEWYQQQPEKGPRYVMELKKDGSHSTGDGIPDRFSGSSSGAERYLTISSLQSEDEADYYCGVGNTIKEQFVYVFGGGTKLTVLGQPKANPTVTLFPPSSEELQANKATLVCLISDFYPGAVTVAWKADGSPVKAGVETTKPSKQSNNKYAASSYLSLTPEQWKSHRSYSCQVTHEGSTVEKTVAPTECS
B2: Hu103-5 (antibody, human IgG1, lambda)
heavy: not shown
light: B1 light with V4L, G43P, Y91I
B3: Hu103-6 (antibody, human IgG1, lambda)
heavy: not shown
light: B1 light with G43P, Y91I
B4: Hu103-7 (antibody, human IgG1, lambda, V domains shown)
VH: EVQLVQSGSELKKPGASVKVSCKASGYTFTTYGVIWVRQAPGQGLEWMGWINTYSGVPTYADDFKGRFVFSLDTSVSTAYLQISSLKAEDTAVYYCARKKTLTTVTPWFAYWGQGTLVTVSS
VL: ELVVTQSPSASASLGASVKLTCTLSSQHSTYTIEWYQQQPEKPPRYVMELKKDGSHSTGDGIPDRFSGSSSGADRYLTISSLQSEDEADYICGVGNTIKEQFVYVFGGGTKLTVLG
B5: Hu103-9 (antibody, human IgG1, lambda)
heavy: not shown
light: B1 light with V4L, Y36H, V47L
B6: Hu103-10 (antibody, human IgG1, lambda)
heavy: not shown
light: B1 light with V4L, V47L
B7: Hu103-12 (antibody, human IgG1, lambda)
heavy: not shown
light: B1 light
B8: Hu103-13 (antibody, human IgG1, lambda)
heavy: not shown
light: B1 light with V4L, G43P, Y91I
B9: Hu103-14 (antibody, human IgG1, lambda)
heavy: not shown
light: B1 light with G43P, Y91I
B10: Hu103-15 (antibody, human IgG1, lambda)
heavy: not shown
light: B1 light with G43P, E74D, Y91I
B11: Hu103-17 (antibody, human IgG1, lambda)
heavy: not shown
light: B1 light with V4L, Y36H, V47L
B12: Hu103-18 (antibody, human IgG1, lambda)
heavy: not shown
light: B1 light with V4L, V47L
B13: Hu103-19 (antibody, human IgG1, lambda)
heavy: not shown
light: B1 light with V4L
B14: Hu103-20 (antibody, human IgG1, lambda)
heavy: not shown
light: B1 light
B15: Hu103-21 (antibody, human IgG1, lambda)
heavy: not shown
light: B1 light with V4L, G43P, Y91I
B16: Hu103-22 (antibody, human IgG1, lambda)
heavy: not shown
light: B1 light with G43P, Y91I
B17: Hu103-23 (antibody, human IgG1, lambda)
heavy: not shown
light: B1 light with G43P, E74D, Y91I
B18: Hu67-7 (antibody, V domains shown)
VH: EVQLVQSGAEVKKPGESLKISCKGSGYSFTDYHMNWVRQMPGKGLEWMGDINPDIGGTSYNQNFKGQVTISADKSISTAYLQWSSLKASDTAMYYCARWDFDSFANWGQGTLVTVSS
VL: EIVMTQSPATLSVSPGERATLSCRASESVSIIGTNLIHWYQQKPGQAPRLLIYHASNLETGIPARFSGSGSGTEFTLTISSLQSEDFAVYYCLQSRKIPYTFGGGTKVEIKR
B19: Hu67-12 (antibody, V domains shown)
VH: B18 VH with R38K, Q67K, A72V
VL: B18 VL
B20: Hu47-10 (antibody, human IgG1, kappa, V domains shown)
VH: EVQLVQSGSELKKPGASVKVSCKASGYTFTTYGMSWVKQAPGQGLKWMGWINTYSGVPTYADDFKGRFVFSLDTSVSTAYLQISSLKAEDTAVYYCARRGNYGRWDFDVWGQGTTVTVSS
VL: EIVLTQSPDFQSVTPKEKVTITCSVSSTISSSNLHWYQQKPDQSPKPLIYGTSNLASGVPSRFSGSGSGTDYTLTINSLEAEDAATYYCQQWSIYPLTFGQGTKLEIKR
B21: Hu67-11 (antibody, human IgG1, kappa, V domains shown)
VH: B18 VH with R38K, Q67K, A72V
VL: DIVMTQSPDSLAVSLGERATINCRASESVSIIGTNLIHWYQQKPGQPPKLLIYHASNLETGVPDRFSGSGSGTDFTLTISSLQAEDVAVYYCLQSRKIPYTFGGGTKVEIKR
B22: Hu47-6 (antibody, human IgG1, kappa, V domains shown)
VH: B20 VH with K38R
VL: B20 VL
B23: Hu67-5 (antibody, human IgG1, kappa, V domains shown)
VH: EVQLVQSGAEVKKPGASVKVSCKASGYTFTDYHMNWVRQAPGQRLEWMGDINPDIGGTSYNQNFKGRVTITRDTSASTAYMELSSLRSEDTAVYYCARWDFDSFANWGQGTLVTVSS
VL: DIVMTQSPSSLSASVGDRVTITCRASESVSIIGTNLIHWYQQKPGKPPKLLIYHASNLETGVPSRFSGSGSGTDFTLTISSLQPEDFATYYCLQSRKIPYTFGGGTKVEIKR
B24: Hu67-1 (antibody, human IgG1, kappa, V domains shown)
VH: B23 VH
VL: B21 VL

What follows are binders tested against T1, human CEA protein on the cell surface (assay: FACS, MKN45 cells).
Protocol: (§1) In order to detect the binding of the antibody to the CEA protein on the cell surface, the binding activity of the antibody was determined by FACS using cells expressing CEA on the cell surface. Cells were harvested and centrifuged at 400 g at 4° C. for 5 min. Pre-cooled PBS containing FBS at final concentration 10% was added, and the mixture was centrifuged at 400 g at 4° C. for 5 min; the procedures were repeated twice. The cells were seeded into a 96-well plate at 10⁵ cells/well, and 100 μL of gradient diluted antibody solution was added to each well. The plate was incubated at 4° C. for 60 min and centrifuged, and the supernatant was removed. 250 μL of pre-cooled PBS containing FBS at final concentration 10% was added to each well to resuspend the cells, and the suspension was centrifuged at 400 g at 4° C. for 5 min, followed by the removal of the supernatant; the procedures were repeated twice. 50 μL of 1:200 diluted secondary antibody Alexa Fluor@488 goat anti-human IgG (H+L) (Lifetechologies, Cat #A11013) was added. […] 250 μL of pre-cooled PBS containing FBS at final concentration 10% was added to each cell to resuspend the cells, and the suspension was centrifuged at 400 g at 4° C. for 5 min; the procedures were repeated twice. 100 μL of pre-cooled PBS was added to each well to resuspend the cells. The plate was analyzed by a flow cytometer (BD, FACSverse) for fluorescence signal values.
B1 showed an EC50 of 2.62 nM. Work on B2 yielded an EC50 of 2.38 nM. B3 was tested, and the EC50 was 1.27 nM. B4 gave an EC50 of 2.2 nM. B5 gave an EC50 of 2.95 nM. Binder B6 has an EC50 of 2.23 nM. In the case of B7, the EC50 is reported as 2.38 nM. B8 was tested, and the EC50 was 2.53 nM. For B9, the EC50 was 2.41 nM. B10 showed an EC50 of 2.13 nM. In the case of B11, the EC50 is reported as 2.92 nM. Binder B12 has an EC50 of 2.75 nM. With B13 the EC50 was 2.42 nM. For B14, the EC50 was 2.19 nM. In the case of B15, the EC50 is reported as 1.34 nM. For B16, the EC50 was 3.64 nM. Binder B17 has an EC50 of 2.9 nM. For B18, the EC50 was 3.88 nM. Work on B19 yielded an EC50 of 3.2 nM. B20 was tested, and the EC50 was 2.27 nM. Binder B21 has an EC50 of 2.26 nM. For B22, the EC50 was 2.5 nM. B23 was tested, and the EC50 was 2.86 nM. For B24, the EC50 was 2.46 nM.

Target: T2, monkey CEA expressed on CHO cell surface
Assay: FACS, cynoCEA-CHO cells
Protocol: as §1
B1 gave an EC50 of 1.32 nM. In the case of B2, the EC50 is reported as 1.47 nM. With B3 the EC50 was 1.56 nM. With B4 the EC50 was 1.62 nM. Work on B5 yielded an EC50 of 1.61 nM. In the case of B6, the EC50 is reported as 1 nM. B7 gave an EC50 of 1.08 nM. With B8 the EC50 was 1.01 nM. B9 showed an EC50 of 1.37 nM. In the case of B10, the EC50 is reported as 1.36 nM. Work on B11 yielded an EC50 of 1.52 nM. For B12, the EC50 was 0.89 nM. For B13, the EC50 was 0.96 nM. B14 gave an EC50 of 0.98 nM. B15 showed an EC50 of 1.17 nM. Binder B16 has an EC50 of 1.02 nM. B17 gave an EC50 of 0.93 nM. For B18, the EC50 was 7.2 nM. B19 was tested, and the EC50 was 5.31 nM. B20 showed an EC50 of 0.27 nM. Binder B21 has an EC50 of 4.66 nM. In the case of B22, the EC50 is reported as 0.3 nM. B23 gave an EC50 of 3.5 nM. Binder B24 has an EC50 of 4.57 nM.
